# Experiment: yeast display, Sf9 membrane polyspecificity reagent, FACS + sequencing; frameworks hold sequencing errors
# In short: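 Synthetic nanobody libraries on Saccharomyces cerevisiae BJ5465 were galactose-induced for 36–48 hours, stained 1 hour at 4 °C with 10% biotinylated, detergent-solubilized Sf9 membrane reagent and enriched on streptavidin microbeads. FACS then separated cells into low and high (top ~1%) gates by anti-HA (expression) and streptavidin (reagent binding) fluorescence. Genes were colony-PCR amplified, MiSeq 2 × 250 sequenced and CDR-length filtered. A clone's polyreactivity label is that of its gate of origin.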
row,Sequence,polyreactivity (PSR sort gate)
1,QDQLVESRGGLVQAGGSLRLSCAASGGTFRVYAMGWFIQAPGKERELVAAISSGGSTNYADSVNGRFTISRDNSKNTVYLQMNSLKPEDTAVYYCAADRVGWSVYRGDYWGHGTQVTVSS,high polyreactivity
2,QDQLVESRGGLVQAGGSLRLTCAASGSTFVIYDMGWYSQATGKERELVAVITIIGGSTYYADSVKGRFTISRDNAKNTVYLQMNSLKPEDTAVYYCNANVIQDYPNYDYWGQGTQVSVSS,low polyreactivity
3,QDQLVESRGVLVQAGGSLRLSCAASGSTFEANAMGWYRQAPGKERELVAVITWTGGSTYYADSVKGRFTISRDNAKNTVYLQMNSLKPEDTAVYYCAADGVVPGRFFWPAHEYDYWGQGTQVTVSS,low polyreactivity
4,QDQLVESVGGLDQAGVSLRLSCAASGFIFRAYAMGWYRQAPGKERELVAAITKRSGTTYYADSVKGRFTISRDNAKNTVYLQMNSLKPEDTAVYYCAAKTLYNSGTQDRAMGYWGQGTQVTVSS,high polyreactivity
5,QDQLVESVGGLVQAGGSLRLSCAASGLTFEVYAMGWSRQAPGKDRELVAAISSGGRSTYYADSVKGRFTISRDNAKNTVYLQMNSRKPEDSAVYYCNAVAKLYYWRYDYWGQGTQVTVSS,low polyreactivity
6,QDQLVESVGGLVQAGGSLRLSCAASGSTFTSNAMGWYRQAPGKERELVAVITIGGSTNYADSVKGRFTISLDNAKNSVYLQMNSLKPEDTAVYYCAAELFPLQHFWGAYATRRYDYWGQGTQVTVSS,low polyreactivity
7,QDQLVESVVGLVQAGGSLRLSCAASGRIFEDYAMGWYRQAPGKERELVARICSGDSTNYADSVKGRFTISRDNAKNTVYLQMNSLKPEDTAVYYCAAEGGVQEFDFCGQGTQVTVSS,low polyreactivity
8,QDQLVESWVGLVQAGGSLRLSYAASGYIIKYNAMGRYRHAPRKERELVAAISSIGGRTYYADSVKARFTISRDNAKNNVYLQINILKPEDTAVYYFNAVGGRYTGWRYDYWGQGTQVTVSS,high polyreactivity
9,QDQLVETGGGLVQAGGSLRLSCAASGSTFAYYTMGWYRPAPGKERELVAAISSGGITYYAYSVKGRFTISRDNAKNTVYLQMNSLKPEDTAVYYCAAYRTHGPPRAIRFDYWGQGTQVTVSS,high polyreactivity
10,QDQLVETGGGLVQAGGSLRLSCAASGSTFWGNAMGWYRQAPGKESELVAAISTSDTSTYYADSVKGRFTISRDNAKNTVYLQMNSLKPEDTAVYYCAAEWYYGEKYDYWGQGTQVTVSS,low polyreactivity
11,QDQLVKSGGGLVQAGGSLRLSCAASGSTFTRNAMGWYRQAHGKERELVAAITLRGGRTYYADSVNGRFTISRDNAKNTVYLHMNSLKPEDTAVYYCAAKPYSAYSYYEQRGRKYDYWGQGTQVTVSS,low polyreactivity
12,QDQLVVSGGGLVQAGGSHSLSCAASGSIFIGYSMGWYRQAPGQERELVAAITSSGRTNYADSVKGRFTISRDNAKNTVYLQMTILKPEDTAVYYCNAEGYQFFTFDYWGQGTQVTVSS,low polyreactivity
13,QDQRVESAGGLVQAGGSLRLSCAASGNIFDPNAMGGYRQAPGKERELVAAIRRGGSTNYADSVKGRFTISRDNAKNTVYLQMISLKPEDTAVYDCDKSRVSFTDLEGYYWGQGTLVTVSS,low polyreactivity
14,QEQHVESGGGLVQAGGSLRLSCAATGLIIYYYAMGWYRQAPGKEMEFVAAISTSGSRTYYADSVKGRFTISRDNAKNTVSLQMNSLKPEDTAVYYCAAEPGRSRYAWGYSYPYDYWGQGTQVTVSS,high polyreactivity
15,QEQLQESGGGLVQAGGSLRLSCAASGNIYDADIMGWYRQAPGKERELVTSITDGGSTNYADSVKGRFTISRDNAKNTVYLQMNSLKPEDTAVYFCAAIAYPVIPTSFDYNSDYSYWGQGTQVTVSS,low polyreactivity
16,QEQLQESGGGLVQAGGSLRLSCAASGSISGSSTMGWYRPAPGKERELVASIAVGANTNYADSAKGRFTISRDNAKNTVYLQMNSLKPEDTAVYYCAVDYYIYYFHYWGQGTQVTVSS,high polyreactivity
17,QEQLQESGGGLVQAGGSLRLSCAASGSISPYIYMGWYRQAPGKERAFVAGIGYGGTTNYADSEKGRYTISRDNAKNTEYLQMNSLKPDDTALYYCNAAYFAGPADDKFDYWGQGTQVTVSS,low polyreactivity
18,QEQLQESGGGLVQAGGSLRLSSAASGSISGSSTMGWYRQAQGKERELVASIAVGANTNYADSAKGRFTISRDNAKNTVYLQMNSLKPEDTAVYYCAVDYYIYYFHYWGQGTQVTVSS,high polyreactivity
19,QEQLQESGGGLVQAGGSLRQICAASGSNTPWSYMGRYRQAPGKEREFVASINAGTNTYYADSAKGRITISRDNAKITVYLQMNSLKPEDTAVYYCAARPDGDRLFSYWGQGTQVTVSS,low polyreactivity
20,QEQLQESGGGLVQEGGSLRLSCAASGNISPPADMGWYRQAPGKERELVASIGTGGTTNYADSVKGRFTISRDNAINTVYLQMNSLKPDDTAVYYCAAVRYEYNPYDYWGQGTQVTVSS,low polyreactivity

row,Sequence,polyreactivity (PSR sort gate)
1,QEQLQESGGGQVQAGGSLLLSCAASGNIIRYYYMGWSRQAPGKERELVAAITYGTSTNYADSVKGRFTISRDNAKNTVYLQMNSLKPEDTAVYYCAVDVNYGDPLDNWGQGTQVTVSS,high polyreactivity
2,QEQLQESGGGQVQAGGSLLLSCAASGNIIRYYYMGWYRQAPGKERELVAAITYGTSTNYADSVKGRFTISRDNAKNTVYLQMNSLKPEDTAVYYCAVDVNYGDPLDNWGQGTQVTVSS,high polyreactivity
3,QEQLQESGSGLVQAGGSLRLSCAASGNIFQDWFMGWYRQAPGKERELVAAISPGANTNYADSVKGRFTISRDNAKNSVYLQMNSLKPEDTAVYYCAAESLFDDYYGYWGQGTQVTVSS,low polyreactivity
4,QEQLQESGSGLVQAGGSLRLSCAASGNIFQDWVMGWYRQAPGKERELVAAISPGAITYYADSVKGRFTISRDNAKYTVYLQTNSLKPEDTAVYYCAAYYIVEYLHGYWGQGTRVTVSS,low polyreactivity
5,QEQLVESGGGLDQAGGSLRLICDASGFTFLGYAMGWYRQAPGKERELVAAITSGGRTNYADSVKGRFTISRDNAKNTVYLQMNSLKPEDTAVYYCAAYRWDYYYWGQGTQVTVSS,high polyreactivity
6,QEQLVESGGGLVQAGGSLRLICADSGRTLVYYGMGWYRQAPGKERELVAAISGSGGRTYYADSVKGRFTISRDNAKNTVYLQMNSLKPEDTAVYYCAALCRSYPAKYASYDYCGQGTQVTVSS,high polyreactivity
7,QEQLVESGGGLVQAGGSLRLICPASGSIFNIYAMPWSRQAPGKERELVATITGIADSTYYADSVKGRFTISRDNAMNTVYLQMNSLKPEDTAVYYCAAEKYVAEYDYWGHGTQVTVSS,low polyreactivity
8,QEQLVESGGGLVQAGGSLRLSCAASGGTFGSNTRGWYRQAPGKERELVAAITSGVSTNYADSVKGRFTISRDNAKITVYLQMNRLKPEDTAVYYCAKELWSEEYETIITYYGFDYLGQGTQVTVSS,low polyreactivity
9,QEQLVESGGGLVQAGGSLRLSCAASGSILRYYAMRWYRQPPGKEREFVAAISWSGTSTYYADSVKGRFTISRDIAKNTVYLQLNSLKPEDTSVYYCAARTYYVPYYYCGQGTQVTVSS,high polyreactivity
10,QEQLVESGGGLVQAGGSLRLSCAASGSTFYANAMGWYRQAPGQERELVAAISWDGGNTYYADSVKGRFTISRDNAKNNVYLQMNSLKPEDTAVYYCARDYYGTVYYYGYDYWGQGTQVTVSS,low polyreactivity
11,QEQLVESGGGLVQAGGSLRLSCDASGRTLSRYTMGWYRQPPGQETELVAAISTSGSTYYADSVKGRFTISRDNAKNPVYLQMNSVKPDDTGVYYCNAVGLYLHYATGYDYWGQGRQVTVSS,high polyreactivity
12,QFHLVESGGGLVQAGGSLRLSCAASGSIFYPYDMGWYRQAPGKERELVATINWSSGRTNYADSVKGRFTISRDYAKNTVYLQMNSLKPEDSAVYYCNARFYYTLYYDYWGQGTQVTVSS,high polyreactivity
13,QFHLVESGGGLVQAGGSLRLSCAATGSIFYTNAMGWYRQPAGTDRELVASIRSRDRTKYADSVKWRFSISRVNAKNTVYLQMNSLKPEDTAVYYCAADRYWYGVHASIYYYWGHGTQVTVSS,high polyreactivity
14,QFKLVESGGGLVQAGGSLRLSCAASGSTFKWNAMGWYRQAPGKERELVAAITSGGSTTYADSVKGRFTISRDNAKNTVYLQMNSLKPEDTAVYYCAAAYRRHYYGVYRFDYWGQGTQVTVSS,high polyreactivity
15,QFKLVESGGGLVQAGGSLRLSCAASGVIIQGNAMGWYRQAPGNEMELVAAISSSVSTYYADSVKGRFTISRDNAKNTVYLQMTSLKPEDTAVYYCNAGFPLSLWLGDYWGHGTQVTVSS,low polyreactivity
16,QFPLVESAGGLGQAGGTLRLTWAASGLSFGANTLGWYRHAPGKERELVAALTISGGITHYADSVKGRFTISRDNANNTVYVQIKSLQPEDTAVYYCAAGAYWRLYPYRQRNGGRMYYWGQGTQVTVSS,low polyreactivity
17,QFQHVDSGGGLVQAGGSLRLSCADSGYTFPLYDMGRYRKAPGKVSELVADINIGGASTYYADSVKGRLTISRDNSKNSVYLQMNSLKPEDTAVYYCAKEYYDGYFPTFDYDYWGQGTQVTVSS,low polyreactivity
18,QFQIVESGGGLVQAGGSLRLSCAASGGTFVSYAMGWYRQAPGKERELVAAITYSGGSTYYADSVKGRFTISRDNAKNTVYLQMNSLKPEDTAVYYCAAAKFSYFSYCPRGKVKYEYWGQGTQVTVSS,low polyreactivity
19,QFQIVESGGGLVQAGGSLRLSCAASGSTFRSYAMGWYRQAPGKERELFARISYRTGSTYYADSVKRRFTISRDNAKNTVYLQMNSLKPEDTVVYYCAAGYIIQRSYFLYDSWGHGTQVTVSS,high polyreactivity
20,QFQLEESGGGLVQAGGSLRLSCAASARIFLNYAMGWFRQAPGKEMELVAAIRSASSTYYADSVKGRFTISRDNAKNTVYLQMNSLKAEDTAVYYCARLRYFLLNGSLRYGSSDRDYWGQGTQVTVSS,high polyreactivity
